Experimental data as given in patent US20200164059A1 (FRED HUTCHINSON CANCER RESEARCH CENTER, published 2020).

Key:
gH/gL on EBV virions = gH/gL on EBV virions (Epstein Barr virus, UniProt P03231 19-706; P03212 23-137); test: cell-based or functional assay
[1] = biological target: gH T62A/gL, recombinant ectodomain (Epstein Barr virus)
[2] = biological target: T1, EBV gH/gL heterodimer, recombinant ectodomain (Epstein Barr virus); test: BLI kinetics, pH 7.4, ligand AMMO1 Mab, analyte gH/gL; KA M^-1 x10^7
T1 construct: range 19-679;range 24-137

[3] = biological target: T1, EBV gH/gL heterodimer, recombinant …; test: BLI kinetics, pH 7.4, ligand AMMO1 Mab, analyte gH/gL; koff (1/s) x10^-3
[4] = biological target: T1, EBV gH/gL heterodimer, recombinant …; test: BLI kinetics, pH 7.4, ligand AMMO1 Mab, analyte gH/gL; KD M x10^-9
[5] = biological target: T1, EBV gH/gL heterodimer, recombinant …; test: BLI kinetics, pH 5.0, ligand AMMO1 Mab, analyte gH/gL; KA M^-1 x10^7
[6] = biological target: T1, EBV gH/gL heterodimer, recombinant …; test: BLI kinetics, pH 7.4, ligand AMMO1 Mab, analyte gH/gL; kon (1/Ms) x10^5
[7] = biological target: T1, EBV gH/gL heterodimer, recombinant …; test: BLI kinetics, pH 5.0, ligand AMMO1 Mab, analyte gH/gL; KD M x10^-9
[8] = biological target: T1, EBV gH/gL heterodimer, recombinant …; test: BLI kinetics, pH 5.0, ligand AMMO1 Mab, analyte gH/gL; koff (1/s) x10^-3
[9] = biological target: T1, EBV gH/gL heterodimer, recombinant …; test: BLI kinetics, pH 5.0, ligand AMMO1 Mab, analyte gH/gL; kon (1/Ms) x10^5

B1: AMMO1 (antibody, V domains shown)
VH: QVQLVQSGADVKKPGASVKVSCKASGYTFIHFGISWVRQAPGQGLEWMGWIDTNNGNTNYAQSLQGRVTMTTDTSTGTAYMELRSLSTDDTAVYFCARALEMGHRSGFPFDYWGQGVLVTVSP
VL: SYELTQPPSVSVAPGQRATITCGGHNIGAKNVHWYQQKPGQAPVLVIQYDSDRPSGIPERFSGSNSGSTATLTISRVEAGDEADYYCQVWDSGRGHPLYVFGGGTKVTVL
notes: also called WT AMMO1; anti-gH/gL MAb AMMO1
gH/gL on EBV virions
  neutralization of B95.8/F EBV infection of B (Raji) cells, IC50: 0.16 µg/mL
[1]
  Ka: 5.85e+09 M⁻¹
  Kd: 0.17 nM
  koff: 0.000135 s⁻¹
  kon: 789000 M⁻¹ s⁻¹
[2]
  Ka: 8.63e+09 M⁻¹
[3]
  koff: 3.87e-05 s⁻¹
[4]
  Kd: 0.12 nM
[5]
  Ka: 7.84e+09 M⁻¹
[6]
  kon: 334000 M⁻¹ s⁻¹
[7]
  Kd: 0.13 nM
[8]
  koff: 7.31e-05 s⁻¹
[9]
  kon: 573000 M⁻¹ s⁻¹
